Two molecules from publication PMC12527946 (2025) can be followed below.

Some targets named below: Clu mutant DD2 (human, UniProt P10909 23-227; P10909 228-449); Clu mutant DD1 (human, UniProt P10909 23-227; P10909 228-449); Clu mutant DD3 (human, UniProt P10909 23-227; P10909 228-449); Clu mutant CC3 (human, UniProt P10909 23-227; P10909 228-449); TL4; Clu mutant TL3 (human, UniProt P10909 23-227; P10909 228-449).
Assay in all cases: ELISA
In general terms: In an ELISA, binding on a coated surface is turned into a signal by an enzyme label.

For assay [1], the target named is VLDLR(28–797)Δ(751–779)-C-tag (VLDLR ectodomain) (human, UniProt P98155-2 28-797, Δ(751–779)).

B1: VLDLR(28–797)Δ(751–779)-C-tag (VLDLR ectodomain) (receptor)
chain: not shown
One may read the Kd as the free concentration of one partner at which half of the binding sites on the other are occupied at equilibrium, for simple one-to-one binding. A high value points to weaker binding. As for B1, the Kd in the assay with Clu mutant DD2 is 1190 nM; in the assay with Clu mutant DD1, 137 nM; with Clu mutant DD3 it was 1180 nM; in the assay with Clu mutant CC3, 109 nM; with TL4, 256 nM; in the assay with Clu mutant TL3 it was 989 nM.

B2: Clu deletion mutant CC1 (natural protein)
chain 1: DQTVSDNELQEMSNQGSKYVNKEIQNAVNGVKQIKTLIEKTNEERKTLLSNLEEAKKKKEDALNETRESETKLKELPGVCNETMMALWEECKPCLKQTCMKFYARVCRSGSGLVGRQLEEFLNQSSPFYFWMNGDRIDSLLENDRQQTHMLDVMQDHFSRASSIIDELFQDRFFTREPQDTYHYLPFSLPHRRPHFFFPKSRIVR
chain 2: SLMPFSPYEPLNFHAMMDIHFHSPAFQHPPTEFIREGDDDRTVCREIRHNSTGCLRMKDQCDKCREILSVDCSTNNPSQAKLRRELDESLQVAERLTRKYNELLKSYQWKMLNTSSLLEQLNEQFNWVSRLANLTQGEDQYYLRVTTVASHTSDSDVPSGVTEVVVKLFDSDPITVTVPVEVSRKNPKFMETVAEKALQEYRKKHREE
modifications: deletion taken as helix α7 = 244-257 as printed; exact CC1 limits only in Fig. 3a; five interchain disulfides; six N-glycans Secreted from HEK293E, glycosylated, Ca2+-bound LDLR repeats, disulfides; C-terminal C-tag left out. Deletion 751-779 taken as printed, in the numbering of the long isoform
As to B2, binding in assay [1] was put at a Kd of 662 nM.
